From paper PMC4505504 come the findings set out here.

The target in the experiment is Mycobacterium tuberculosis cytochrome bcc complex (QcrCAB) (M. tuberculosis) (UniProt P9WP35). Briefly: pyridine hemochrome heme quantification.

One may read the stoichiometry N as a count of units in the complex or per binding partner. The substance “Mycobacterium smegmatis cytochrome aa3 (cytochrome oxidase) (complex)” returned a stoichiometry N of 1.
